According to patent US20140335077A1, “Compositions and Methods for the Treatment of Cancer Using IGF-IR Antagonists and MAPK/ERK Inhibitors” (priority 2013, published 2014):

What was measured:
Assay type in all cases: cell-based
[1] = system: SKMel28; experiment: PrestoBlue cell viability, anti-IGF-1R antibody with U0126, SKMel28 (melanoma); conditions: 48 h
Procedure: (§1) Cells were incubated in 96 well tissue culture plates and cell viability was measured by PrestoBlue cell viability assay (Invitrogen, CA, USA) according to manufacturer's instructions. Fluorescence was measured with excitation at 560 nm and emission at 590 nm. Cell number was calculated from standard curves of fluorescence measurements from known numbers of cells. Triplicate cultures were performed on all experiments.
(§2) The effects of anti-IGF-1R antibodies/MEK inhibitor combination treatment on viability of different types of tumor cells were investigated using PrestoBlue cell viability assay (Invitrogen, CA, USA) according to manufacturer's instructions. (Table 3).
(§3) Cells were incubated in serum free medium for 12 h followed by pretreatment for 60 min without or with 0.5, 1, 3 or 5 μM of the ERK inhibitor U0126, and then treated without or with 100 ng/ml anti-IGF-1R antibodies (Figitumumab or αIR-3 (Calbiochem, US). Cells were incubated in 96 well tissue culture plates for 48 hours and cell viability was measured by PrestoBlue cell viability assay. Fluorescence was measured with excitation at 560 nm and emission at 590 nm. Cell number was calculated from standard curves of fluorescence measurements from known numbers of cells. Triplicate cultures were performed on all experiments. The inhibition induced by anti-IGF-1R antibodies treated cells was calculated as percentage of untreated cells.

[2] = system: MCF7; experiment: PrestoBlue cell viability, anti-IGF-1R antibody with U0126, MCF7 (breast carcinoma); conditions: 48 h
Procedure: as §1, §2, §3

[3] = system: MDA-MB-231; experiment: PrestoBlue cell viability, anti-IGF-1R antibody with U0126, MDA-MB-231 (breast carcinoma); conditions: MDA-MB-231 cells, 48 h
Procedure: as §1, §2, §3

[4] = system: OMM 2.3; experiment: PrestoBlue cell viability, anti-IGF-1R antibody with U0126, OMM 2.3 (liver metastasis of uveal melanoma); conditions: OMM 2.3 cells, 48 h
Procedure: as §1, §2, §3

[5] = system: OMM 2.5; experiment: PrestoBlue cell viability, anti-IGF-1R antibody with U0126, OMM 2.5 (liver metastasis of uveal melanoma); conditions: OMM 2.5 cells, 48 h
Procedure: as §1, §2, §3

[6] = system: Colo 205; experiment: PrestoBlue cell viability, anti-IGF-1R antibody with U0126, Colo 205 (colon carcinoma); conditions: Colo 205 cells, 48 h
Procedure: as §1, §2, §3

[7] = system: DU-145; experiment: PrestoBlue cell viability, anti-IGF-1R antibody with U0126, DU-145 (prostate carcinoma); conditions: DU-145 cells, 48 h
Procedure: as §1, §2, §3

[8] = system: MIAPaCa2; experiment: PrestoBlue cell viability, anti-IGF-1R antibody with U0126, MIAPaCa2 (pancreatic cancer); conditions: 48 h
Procedure: as §1, §2, §3

[9] = system: OCM-1; experiment: PrestoBlue cell viability, anti-IGF-1R antibody with U0126, OCM-1 (uveal melanoma); conditions: OCM-1 cells, 48 h
Procedure: as §1, §2, §3

[10] = system: SK-OV-3; experiment: PrestoBlue cell viability, anti-IGF-1R antibody with U0126, SK-OV-3 (ovarian carcinoma); conditions: SK-OV-3 cells, 48 h
Procedure: as §1, §2, §3

[11] = target: T1, IGF-1R (Homo sapiens, UniProt P08069); experiment: IGF-1R ubiquitination in ES cells (immunoprecipitation, WB); conditions: 10 min stimulation, serum starved ES cells; all investigated cell lines
T1 construct: all the ES cell lines tested expressed IGF-1R; endogenous in cells; host or cells: Ewing's sarcoma cell lines SKES, RDES, CADO, A673, SKNMC
Procedure: (§4) FIG. 2A-FIG. 2D. Mechanism of CP induced IGF-1R downregulation: β-arrestin1 recruitment and receptor ubiquitination. (A) Cells incubated in serum free medium for 12 h were treated with 0, 0.1 or 1 μg/ml CP for 24 h. Protein lysates were analyzed by WB for IGF-1R and GAPDH as a loading control. […] Protein lysates were analyzed by WB for IGF-1R and GAPDH as a loading control. Signals were quantified by densitometry, normalized to GAPDH and expressed as a percentage of the IGF-1R at 0 h. Data correspond to the mean±SEM from three independent experiments. […] IGF-1R was immunoprecipitated from lysates and analyzed by WB (IB) for ubiquitination (Ub) and IGF-1R as a loading control. Molecular weight markers in KDa are indicated to the left of the panels. (D) β-Arrestin1 (β-arr1) was immunoprecipitated from cell lysates prepared as for (C). Immunoprecipitated proteins were analyzed by WB for IGF-1R. The whole lysates were analyzed by WB for GAPDH as a loading control.
(§5) Cells were lysed with 500 μl lysis buffer (110 mM KOAc, 0.5% (v/v) Triton X-100, 100 mM NaCl, protease inhibitor cocktail tablet (Roche), buffering salts pH 7.4). 500 μg of protein was incubated with Dynabeads protein G (10 μl) (Invitrogen, CA, USA) and 1 μg antibody overnight at 4° C. on a rotator platform. […]
(§6) These trends were confirmed by densitometric quantification of multiple experiments (FIG. 2B, graphs). […]

[12] = target: T2, IGF-1R/β-arr1 association (Homo sapiens, UniProt P08069); experiment: β-arrestin1 recruitment to IGF-1R in ES cell lines (immunoprecipitation, WB); conditions: 10 min stimulation; all ES cell lines
T2 construct: endogenous in cells; host or cells: Ewing's sarcoma cell lines
Procedure: as §4, §5, §6

[13] = U0126 0 μM (60 min pretreatment)
[14] = U0126 0.5 μM (60 min pretreatment)
[15] = U0126 1 μM (60 min pretreatment)
[16] = U0126 3 μM (60 min pretreatment)
[17] = U0126 5 μM (60 min pretreatment)

B1: CP-751,871: anti-IGF-1R antibody figitumumab (Pfizer), IGF-1R antagonist (antibody, chains of the INN, looked up)
heavy: EVQLLESGGGLVQPGGSLRLSCTASGFTFSSYAMNWVRQAPGKGLEWVSAISGSGGTTFYADSVKGRFTISRDNSRTTLYLQMNSLRAEDTAVYYCAKDLGWSDSYYYYYGMDVWGQGTTVTVSSASTKGPSVFPLAPCSRSTSESTAALGCLVKDYFPEPVTVSWNSGALTSGVHTFPAVLQSSGLYSLSSVVTVPSSNFGTQTYTCNVDHKPSNTKVDKTVERKCCVECPPCPAPPVAGPSVFLFPPKPKDTLMISRTPEVTCVVVDVSHEDPEVQFNWYVDGVEVHNAKTKPREEQFNSTFRVVSVLTVVHQDWLNGKEYKCKVSNKGLPAPIEKTISKTKGQPREPQVYTLPPSREEMTKNQVSLTCLVKGFYPSDIAVEWESNGQPENNYKTTPPMLDSDGSFFLYSKLTVDKSRWQQGNVFSCSVMHEALHNHYTQKSLSLSPG
light: DIQMTQFPSSLSASVGDRVTITCRASQGIRNDLGWYQQKPGKAPKRLIYAASRLHRGVPSRFSGSGSGTEFTLTISSLQPEDFATYYCLQHNSYPCSFGQGTKLEIKRTVAAPSVFIFPPSDEQLKSGTASVVCLLNNFYPREAKVQWKVDNALQSGNSQESVTEQDSKDSTYSLSSTLTLSKADYEKHKVYACEVTHQGLSSPVTKSFNRGEC
Percentage inhibition of antibody treated cells (100 ng/ml) [1, 13]: 5%
Percentage inhibition of antibody treated cells (100 ng/ml) [1, 14]: 15%
Percentage inhibition of antibody treated cells (100 ng/ml) [1, 15]: 17%
Percentage inhibition of antibody treated cells (100 ng/ml) [1, 16]: 25%
Percentage inhibition of antibody treated cells (100 ng/ml) [1, 17]: 29%
Percentage inhibition of antibody treated cells (100 ng/ml) [2, 13]: 15%
Percentage inhibition of antibody treated cells (100 ng/ml) [2, 14]: 18%
Percentage inhibition of antibody treated cells (100 ng/ml) [2, 15]: 25%
Percentage inhibition of antibody treated cells (100 ng/ml) [2, 16]: 18%
Percentage inhibition of antibody treated cells (100 ng/ml) [2, 17]: 33%
Percentage inhibition of antibody treated cells (100 ng/ml) [3, 13]: 8%
Percentage inhibition of antibody treated cells (100 ng/ml) [3, 14]: 12%
Percentage inhibition of antibody treated cells (100 ng/ml) [3, 15]: 15%
Percentage inhibition of antibody treated cells (100 ng/ml) [3, 16]: 22%
Percentage inhibition of antibody treated cells (100 ng/ml) [3, 17]: 32%
Percentage inhibition of antibody treated cells (100 ng/ml) [4, 13]: 12%
Percentage inhibition of antibody treated cells (100 ng/ml) [4, 14]: 35%
Percentage inhibition of antibody treated cells (100 ng/ml) [4, 15]: 45%
Percentage inhibition of antibody treated cells (100 ng/ml) [4, 16]: 65%
Percentage inhibition of antibody treated cells (100 ng/ml) [4, 17]: 97%
Percentage inhibition of antibody treated cells (100 ng/ml) [5, 13]: 7%
Percentage inhibition of antibody treated cells (100 ng/ml) [5, 14]: 33%
Percentage inhibition of antibody treated cells (100 ng/ml) [5, 15]: 65%
Percentage inhibition of antibody treated cells (100 ng/ml) [5, 16]: 87%
Percentage inhibition of antibody treated cells (100 ng/ml) [5, 17]: 89%
Percentage inhibition of antibody treated cells (100 ng/ml) [6, 13]: 21%
Percentage inhibition of antibody treated cells (100 ng/ml) [6, 14]: 28%
Percentage inhibition of antibody treated cells (100 ng/ml) [6, 15]: 34%
Percentage inhibition of antibody treated cells (100 ng/ml) [6, 16]: 45%
Percentage inhibition of antibody treated cells (100 ng/ml) [6, 17]: 67%
Percentage inhibition of antibody treated cells (100 ng/ml) [7, 13]: 18%
Percentage inhibition of antibody treated cells (100 ng/ml) [7, 14]: 22%
Percentage inhibition of antibody treated cells (100 ng/ml) [7, 15]: 34%
Percentage inhibition of antibody treated cells (100 ng/ml) [7, 16]: 54%
Percentage inhibition of antibody treated cells (100 ng/ml) [7, 17]: 77%
Percentage inhibition of antibody treated cells (100 ng/ml) [8, 13]: 27%
Percentage inhibition of antibody treated cells (100 ng/ml) [8, 14]: 35%
Percentage inhibition of antibody treated cells (100 ng/ml) [8, 15]: 55%
Percentage inhibition of antibody treated cells (100 ng/ml) [8, 16]: 78%
Percentage inhibition of antibody treated cells (100 ng/ml) [8, 17]: 89%
Percentage inhibition of antibody treated cells (100 ng/ml) [9, 13]: 22%
Percentage inhibition of antibody treated cells (100 ng/ml) [9, 14]: 28%
Percentage inhibition of antibody treated cells (100 ng/ml) [9, 15]: 35%
Percentage inhibition of antibody treated cells (100 ng/ml) [9, 16]: 46%
Percentage inhibition of antibody treated cells (100 ng/ml) [9, 17]: 55%
Percentage inhibition of antibody treated cells (100 ng/ml) [10, 13]: 17%
Percentage inhibition of antibody treated cells (100 ng/ml) [10, 14]: 25%
Percentage inhibition of antibody treated cells (100 ng/ml) [10, 15]: 35%
Percentage inhibition of antibody treated cells (100 ng/ml) [10, 16]: 55%
Percentage inhibition of antibody treated cells (100 ng/ml) [10, 17]: 67%
IGF-1R ubiquitination compared with IGF-1 [11]: more potent in generating receptor ubiquitination
β-arr1 recruitment to the receptor compared with IGF-1 [12]: much more potent than IGF-1 in recruiting β-arr1
